Data set [1] deals with the molecule itself. Kind of data set: gel shift multimers on DNA probe (self-association on DNA). In general terms: A gel shift assay detects complexes by their altered migration in electrophoresis.
Data set [2] concerns the molecule itself. As to the kind of experiment: DNase I footprinting on the DHFR-E probe (self-association on DNA, inferred). From the text:
Materials and Methods: Probe DHFR-E-top was generated by digesting pUC/E with Bam HI, end-labeling by Klenow fill-in in the presence of [α-^32P]-dATP, and digesting with Bgl II. Probe DHFR-E-bottom was generated by digesting pUC/E with Bgl II, end-labeling by Klenow fill-in in the presence of [α-^32P]-dATP, and digesting with Bam HI. Footprinting probes were purified by gel electrophoresis and Geneclean (Bio 101), and resuspended in distilled water at a specific activity of 50,000 dpm/ul. Binding reactions (50 ul) that contained 50,000 dpm of labeled probe were assembled as for gel mobility shift assays. After incubation at 37° C. for 20 min and on ice for 15 min, one volume of a 5 mM CaCl_2, 10 mM MgCl2 solution was added for one minute at room temperature, followed by the addition of 0.02 units of DNase I for 1 min. Footprinting reactions were stopped with the addition of 90 ul prewarmed stop buffer (200 mM NaCl, 30 mM EDTA, 1% SDS), extracted with phenol, ethanol precipitated, and resuspended in sequencing dye buffer. Samples were resolved by electrophoresis at 65 W for 1.5 to 3.0 hours on denaturing 8% polyacrylamide gels. The gel was dried, exposed to Kodak XAR film at –80° C., and signals were detected by autoradiography.
Fusion proteins containing hand Z2 induced multiple hypersensitive sites on the top strand of DHFR-E, including the prominent site at position 3483.

B1: GST-Z2 (GST fused to the Z2 domain of RIP60, zinc fingers 6-8 plus 37 amino acids of the proline rich region) (other)
chain: GGDAVDRPFQCACCGKRFRHKPNLIAHRRVHTGERPHQCPECGKRFTNKPYLTSHRRIHTGEKPYPCKECGRRFRHKPNLLSHSKIHKRSEGSAQAAPGPGSPQLPAGPQESAAEPTPAVPLKPAQ
notes: Expressed in E. coli BL21 and purified on glutathione beads; also called GST-Z2(P12); GST-Z2-P12; not shown: glutathione-S-transferase (GST) purification tag, 26 kD, at the amino terminus; from vector pGEX-2T
On to B1, for which, in data set [1], the binding result is listed as “binds”.

B2: GST-Z23 (GST fused to hands Z2 and Z3 of RIP60) (other)
chain: PRPGGDAVDRPFQCACCGKRFRHKPNLIAHRRVHTGERPHQCPECGKRFTNKPYLTSHRRIHTGEKPYPCKECGRRFRHKPNLLSHSKIHKRSEGSAQAAPGPGSPQLPAGPQESAAEPTPAVPLKPAQEPPPGAPPEHPQDPIEAPPSLYSCDDCGRSFRLERFLRAHQRHDTGERPFTCAECGKNFGKKTHLVAHSPVHSGERPFACEECGRRFSQGSHLAAHRPDHAPDRPFVCPDCGKAFRHKPYLARHRRIHTGEKPYVCPDCGKAFSQKSNLVSHRRIHTGERPYACPDCDRSFSQKSNLITHRKSHIRDGAFCCAICGQTFDDEERLLAHQKKHDV
notes: The start of the range is derived from the domain limits; nucleotide 682 would give residue 228; also called pCH61 product; not shown: glutathione-S-transferase (GST) purification tag from vector pGEX-2T
Consider B2, for which the binding result in data set [2] is “binds”.

The record behind these values is patent US6780986 (UNIVERSITY OF VERMONT AND STATE AGRICULTURAL COLLEGE, dated 2004).
